Measurements: patent publication US6623741

What was measured:
[1] = target: viral gp41 of HIV-1 (on HIV-1 virions and HIV-1 infected cells) (HIV-1) (UniProt P04578); experiment: cell-based or functional assay
[2] = target: MF-IV (MF5.1): E. coli maltose binding protein fused to RSV F protein residues 142-302 (E. coli; respiratory syncytial virus (strain A2)) (UniProt P03420); experiment: competitive binding assay (B50) on the MF5.1 fusion protein (DP107 target)
[3] = target: MF-IV (MF5.1): E. coli maltose binding protein fused to RSV F protein residues 142-302 (E. coli; respiratory syncytial virus (strain A2)) (UniProt P03420); experiment: competitive binding assay (B50) on the MF5.1 fusion protein; reference T112

Substance	Cell Fusion (IC90) [1]	HIV-infectivity (IC90) [1]	binding affinity [2]	fold lower binding affinity than T112 [3]
DP107 (peptide)	1000 nM	1000 nM		
DP178 (peptide)	1 nM	80 nM		
M41 (maltose binding protein fused to the extracellular domain of HIV-1 gp41, residues 540-686) (from UniProt P03377 540-686)	> 50000 nM	> 16 nM		
M41-P (M41 with Ile to Pro mutation at position 578) (from UniProt P03377 540-686)	83 nM	66 nM		
M41-PΔ178 (M41Δ178 with the Ile to Pro mutation at position 578) (from UniProt P03377 540-642)	> 50000 nM	> 8000 nM		
T1091 (peptide)			19 nM	10 fold
